Source: the nanobody polyreactivity screen of Harvey et al. (2022)

test: yeast display, Sf9 membrane polyspecificity reagent, FACS + sequencing; frameworks hold sequencing errors
Method in brief: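 Galactose-induced (36–48 hours) yeast carrying a synthetic nanobody display library were exposed to 10% biotinylated, detergent-solubilized Sf9 membrane reagent at 4 °C for 1 hour. FACS followed streptavidin microbead enrichment, using low and high (top ~1%) gates for expression (anti-HA) and reagent binding (streptavidin). Colony PCR, MiSeq 2 × 250 sequencing and CDR-length filtering followed. Labels for polyreactivity reflect the gate of origin.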

Row | Sequence | polyreactivity (PSR sort gate)
1 | QVQLVESGGGLVQAGGSLRLSCAASGSTFGWYAMGWYRQAPGKERELVATISTTGGRTYYADSVKGRFTISRDNAKNTVYLQMNSLKPEDTAVYYCAARAFYKRYFAFDYWGQGTQVTVSS | high polyreactivity
2 | QVQLVESGGGLVQAGGSLRLSCAASGSTFGWYAMGWYRQAPGKETELDAAISWSGGSTYYADSVKGRFTISRDNAKNTVYLQMNSLKPEDTAVYYCARDTQYPYYFLMDYWGQGTQVTVSS | low polyreactivity
3 | QVQLVESGGGLVQAGGSLRLSCAASGSTFGWYTMAWYRQAPGKERELVAAITSRGTRTSYADSVKGRFTISRDNAKNTVYLQMNSLKPEETAVYYCAARVFRGLGEYYWGQGTQVTVSS | high polyreactivity
4 | QVQLVESGGGLVQAGGSLRLSCAASGSTFGWYTMGWYRQAPGKERELVAAINYSGGSTYYADSVKGRFTISRDNAKNTVYLQMISLKPEDTAVYYCAADGTWSIYGGLYYWGQGTQVTVSS | low polyreactivity
5 | QVQLVESGGGLVQAGGSLRLSCAASGSTFGYNAMGWSRPAPGKERELVAAITWSGGSTYYADSVKGRFTISRDNAKNTVYLQMNSLKPEDTAVYYCAADDWYNSKWHYYYWGQGTQVTVSS | low polyreactivity
6 | QVQLVESGGGLVQAGGSLRLSCAASGSTFGYNAMGWYRQAPGKERELVAAIRRSGGSTYYADSVKGRFTISRDNAKNTVYLQMNSLKPEDTAVYYCAAAGGKRHEYWGQGTQVTVSS | high polyreactivity
7 | QVQLVESGGGLVQAGGSLRLSCAASGSTFGYNAMGWYRQAPGKERELVAAISYSGGSTSYADSVKGRFTISRDNAKNTVYLQMNSLKPEDTAVYYCAADEGTGQASLSSNLYDYWGQGTQVTVSS | low polyreactivity
8 | QVQLVESGGGLVQAGGSLRLSCAASGSTFGYNAMGWYRQAPGKERELVAAITWSGGSTYYADSVKGRFTISRDNAKNTVYLQMNSLKPEDTAVYYCAADDWYNSTWHYYYWGQGTQVTVSS | low polyreactivity
9 | QVQLVESGGGLVQAGGSLRLSCAASGSTFGYNAMGWYRQAPGKERELVAAITWTGASTYYADSVKGRFTISRDIAKNTVYLQMNSLKPEDTAVYYCNRVGYQSMNYWGQGTQVTVSS | low polyreactivity
10 | QVQLVESGGGLVQAGGSLRLSCAASGSTFGYNGLGWYRQAPGKERELVAAISGGARTYADSVKGRFTISRDNAKNTVYLQMNSLKPEDTSVYYCAADSPVSVTADDGYWGQGTQVTVSS | low polyreactivity
11 | QVQLVESGGGLVQAGGSLRLSCAASGSTFGYNGMGWYRQAPGKERELVAAISGGARTYADSVKGRFTISRDNAKNTVYLQMNSLKPEDTAVYYCAADSPVSVTADDGYWGQGTEVTVSS | low polyreactivity
12 | QVQLVESGGGLVQAGGSLRLSCAASGSTFGYNGMGWYRQGPGKERELVAAISGGARTYADSVKGRFTISRDNAKNTVYLQMNSLKPEDTAVYYCAADSPVSVTADDGYWGQGTQLTVSS | low polyreactivity
13 | QVQLVESGGGLVQAGGSLRLSCAASGSTFGYYAMGWYIQAPGKERELVAAISWPGGSTYYADSVKGRFTISRDNAKNTVYLQMNSLKPEYTAVYYCAADTPYWQSSKYDYWGQGTQVSVSS | high polyreactivity
14 | QVQLVESGGGLVQAGGSLRLSCAASGSTFGYYAMGWYRQAPGKERELVAAIRWSGSTYYADSVKGRFTISRDNAKNTVYLQMNSLKPEDTAVYYCAADFVKRQANRQFDYWGQGTQVTVSS | high polyreactivity
15 | QVQLVESGGGLVQAGGSLRLSCAASGSTFGYYAMGWYRQAPGKERELVAAISLGGGSTYYADSVKGRFTISRDNAKNTVYLQMNSLKPEDTEVYYCAARPYVRVKWKFNYWGQGTQVTVSS | low polyreactivity
16 | QVQLVESGGGLVQAGGSLRLSCAASGSTFGYYAMGWYRQAPGKERELVAAISRGDSTNYADSVKGRFTISRDNAKNTVYLQMNSLKPEDTAVYYCAADQLNVCREYVEYDYWGQGTQVTVAS | low polyreactivity
17 | QVQLVESGGGLVQAGGSLRLSCAASGSTFGYYAMGWYRQAPGKERELVAAISSGGSTNYADSVKGRFTISRDNAKNTVYLQMNSLKPEDTAVYYCNVGYIFVSFRYDYWGQGTQVTVSS | low polyreactivity
18 | QVQLVESGGGLVQAGGSLRLSCAASGSTFGYYAMGWYRQAPGKERELVAAITWSGGSTSYADSVKGRFTISRENAKNSVYLQMNSLKPEDTAVYYCAAQYKKGRGAKRTYYGGWLEYCGQGTQVTVSS | low polyreactivity
19 | QVQLVESGGGLVQAGGSLRLSCAASGSTFGYYAMGWYRQAPGKERELVAVIRRGGSTNYADSVKGRFTISRENAKNTVYLQMHSLKPEDTAVYYCAKSQRGTVYSYYYWGQGSQVTVSS | high polyreactivity
20 | QVQLVESGGGLVQAGGSLRLSCAASGSTFGYYAMGWYRQAPRKERELVAVITRGGSTYYADSVKGRFTISRDNAKNTVYVQMNSLKPEDTAVYYCNARVQAVHYGYWGQGTEVTVSS | high polyreactivity
21 | QVQLVESGGGLVQAGGSLRLSCAASGSTFGYYAMGWYRQAPVKERELVAAISAGDRTYYADSVKGRFTISRDNATNTLYLQMNSLKPEDTAVYYSAARPLRSRNGYYWGQGTQGTVSS | high polyreactivity
22 | QVQLVESGGGLVQAGGSLRLSCAASGSTFGYYGMGRYRQAPGKERELVASIDSRGDSTYADSVKGRFTISRDNAKNTVYLQMNSLKPEDTSVYYCADDSWYTWFDSWGQGTQVTVSS | low polyreactivity

Row | Sequence | polyreactivity (PSR sort gate)
23 | QVQLVESGGGLVQAGGSLRLSCAASGSTFGYYSMGWYRQAPGKERELVAAIRYSGGTTYYADSVKGRYTISRDNAKNTVYLQMNSLKPEDTAVYYCAAVYTSGYYYWGQGTQVTVSS | high polyreactivity
24 | QVQLVESGGGLVQAGGSLRLSCAASGSTFGYYTMGWYRQAPGKERELVAAITWLGGRTYYADSVKGRFTISRDNAKNTVYLQMNSLKPEDTAVYYCAARSTVLMDYWGQGTQVTVSS | high polyreactivity
25 | QVQLVESGGGLVQAGGSLRLSCAASGSTFGYYTMGWYRQAPGKERELVASIDVSGDSTSYADSVKGRLTISRDNAKNTVYLQMNSLKPEDTAVYYCNTGRYPTSPTHNYWGQGTQVTVSS | low polyreactivity
26 | QVQLVESGGGLVQAGGSLRLSCAASGSTFHFYAMGWYRQAPGKESELVAAITWSGGTTYYADSVKGRFTISRDNAKNTVYFQMNSLKPEDTGVYYCATGQSVIYRYEYWGQGTQVTVSS | low polyreactivity
27 | QVQLVESGGGLVQAGGSLRLSCAASGSTFHGNAMGWYRQAPGKERELVAAISRSGGSTYYADSVKGRFTISRDNEKNTVYLQMNSLKPEDNAVYYCAADRPYYPLKYDYWGQGTQVTVSS | high polyreactivity
28 | QVQLVESGGGLVQAGGSLRLSCAASGSTFHGYDMGWYRQAPGKERELVAAITSSGDDTYYADSVKGRFTISRDNAKNTVYLQMNSLKPEDTAVYYCAAEYTEGYTHDYWGQGTQVNVSS | low polyreactivity
29 | QVQLVESGGGLVQAGGSLRLSCAASGSTFHIYAMGWYRQAPGKERELVAGITRGSTYYADSVKGRFTISRDNAKNTVYLQMNSLKPEDTAVYYCAADVYGFRYSESDYWGQGTQVTVSS | low polyreactivity
30 | QVQLVESGGGLVQAGGSLRLSCAASGSTFHPNAMGWYRQAPGKERELVAISSGDDTYYADSVKGRFTISRDIAKNTVYLQMKSLKPEDTAVYYCAAEYSFIYYWGQGTQVTVSS | low polyreactivity
31 | QVQLVESGGGLVQAGGSLRLSCAASGSTFHPNGMGWYRQAPGKERELVAAIRRSGGSTYYADSVKGRFTISRDNAKNTVYLQMNSLKPEDTAVYYCAAKHYYYSPYVRYDPPPGYYWGQGTQVTVSS | high polyreactivity
32 | QVQLVESGGGLVQAGGSLRLSCAASGSTFHQNTMGWYRQAPVKEREMVAAISWTGGGTYYADSVKGRYTISRDNAKNTVYLQMNSLKPEDTAVYYCAADYSDFWGFRYYYWGQGTQVNVSS | low polyreactivity
33 | QVQLVESGGGLVQAGGSLRLSCAASGSTFHRNAMGWYRQAPGKERELVAAITSGGSTNYADSVKGRFTISRDNAKNTVYLQMNSLKPEDTAVYYCAKDYRHYNRGWYDYWGQGTQVTVSS | low polyreactivity
34 | QVQLVESGGGLVQAGGSLRLSCAASGSTFHRNTMGWYRQAPGKERELVAGISLRGVRTYYADSVKGRFTISRDNAKNTVYLQMNSLKPEDTAVYYCAAGGPYTRNFKLGYWGQGTQVTVSS | high polyreactivity
35 | QVQLVESGGGLVQAGGSLRLSCAASGSTFHSNAMGGYRQAPGKERELVAAISSGGSTNYADSVKGRFTISRDNAKNTVYLQMNSLKPEDTAVYYCAAVWRYLGYTAMDYWGQGTQVTVSS | low polyreactivity
36 | QVQLVESGGGLVQAGGSLRLSCAASGSTFHSYVMGWYRQAHGKERELVAAITSRGGSTNYADSVKGRFTISRDNAKNTVYLQMNSLKPEDTAVYYCAADGYWGWSYFRYDYWGQGTLVTVSS | low polyreactivity
37 | QVQLVESGGGLVQAGGSLRLSCAASGSTFHTYDMGWYRQAPGKERELVAAITSGGDTNYADSVKGRFTISRDNAKNTVYLQMNSLKPEDTAVYYCNTDRWGTGKLRYNYWGQGTQVTVSS | low polyreactivity
38 | QVQLVESGGGLVQAGGSLRLSCAASGSTFHTYGLGWYRQAPGKERELVAAIDLSDGSTYYADSVKGRFTISRDNAKNTVYLQMNSLKPADTAVYYCKADYFPKPYRPDDYWGQGTQVTVSS | low polyreactivity
39 | QVQLVESGGGLVQAGGSLRLSCAASGSTFHWYDMGWYRQAPGKERELVAGINSSGDGTYYADSVKGRFTISRDNAKYTVYLQMNSLKPEDTAVYYCAAPWWYYGVPYQTNKYDYWGQGTQVTVSS | low polyreactivity
40 | QVQLVESGGGLVQAGGSLRLSCAASGSTFHYYAMGWYRQAPGKERELVAAISQSGSGTYYADSVKGRFTISRDNAKNTVYLQMNSLKPEDTAVYYCAKESTKIYRVVEMDYWGQGTQVTVSS | low polyreactivity
41 | QVQLVESGGGLVQAGGSLRLSCAASGSTFHYYVMRWYRQAPGKERELVAAIRRSGGTTYYADSVKGRFTISRDNAKNTVYLQMNSLKPEDTAVYYCAAPGWYGGYPSYYYWGQGTQVSVSS | low polyreactivity
42 | QVQLVESGGGLVQAGGSLRLSCAASGSTFIAYTMGWYRQAPGKERELVAAITWSGGGTYYADSVKGRFTISRDNAKNTVYLQMNSLKPEDTAVYYCAKRGWRGYYWGQGTQVTVSS | high polyreactivity
43 | QVQLVESGGGLVQAGGSLRLSCAASGSTFIFYVMVWYRQAPGKERELVASITGNGTSTYYADSVKGRFTISRDNAKNTVYLQMNSLKPEDSAVYYCNAVFSPSRYDYWGQGTQVTVSS | low polyreactivity
